Source: patent US20060165683A1, “Methods and compositions for control of bone formation via modulation of sympathetic tone” (priority 2001, published 2006)
“Also recorded” adds a separate entry of the source.

B1: leptin: polypeptide hormone, product of the ob gene; human leptin (Sigma) infused ICV (protein)
chain: VPIQKVQDDTKTLIKTIVTRINDISHTQSVSAKQRVTGLDFIPGLHPILSLSKMDQTLAVYQQVLTSLPSQNVLQIANDLENLRDLLHLLAFSKSCSLPQTSGLQKPESLDGVLEASLYSTEVVALSRLQGSLQDILQQLDVSPEC

How the values were obtained:
primary osteoblasts = assay: Gene expression and apoptosis in primary osteoblasts; format: cell-based, mouse
Description: Primary osteoblast cultures were established as previously described (see, e.g., Ducy et al., 2000, Cell 100: 197-207) and maintained in αMEM/0.1 mg/ml ascorbic acid supplemented with 10% FBS. SaOS-2 were grown in MEM/10% FBS. For cAMP assay confluent cultures were incubated with serum free medium containing 100 μM IBMX (3-isobutyl-1-methylxanthine, Sigma) for 8 minutes before PBS, PTH(1-34) (Bachem), isoproterenol, norepinephrine, phenylephrine (Sigma) or propranolol were added for 5 min. Intracellular cAMP concentration was measured by immunoassay (R&D Systems). For gene expression analyses, primary osteoblasts were treated for 72 hours with appropriate drugs in 0.1% FBS. Hormone serum levels were quantified using immunoassays kits from Peninsula Laboratories (Insulin) or Alpco Diagnostics (leptin). Deoxypyridinoline cross-links and Creatinine were measured in morning urines using the Quidel kits. a1(I) leptin bioactivity was verified by cotransfection of 293 cells expressing ObRb with a STAT3-responsive-luc reporter construct, pSVβgal plasmid and a1(I) leptin expression vector or mock. Twenty-four hours later luciferase and β-galactosidase activities were measured. Data represents ratios of luciferase/β-galactosidase activities, and values are mean of 6 independent transfection experiments.
To elucidate the bases of the antiosteogenic effect of isoproterenol in vivo, osteoblast proliferation, gene expression and apoptosis were studied.

ob/ob mice = assay: Intracerebroventricular infusion of leptin in ob/ob mice; format: in vivo, mouse
Description: Lastly, the issue of whether leptin binding to its hypothalamic receptor could correct the high bone mass phenotype of the ob/ob mice as it can rescue their obesity phenotype was addressed. To that end pumps delivering either PBS or leptin (8 ng/hr) in the third ventricle of ob/ob mice were inserted as follows. Animals were anesthetized with avertin and placed on a stereotaxic instrument (Stoelting). The Calabria was exposed and a 0.7 mm hole was drilled upon bregma. A 28-gauge cannula (Brain infusion kit U, Alza) was implanted into the third ventricle according to the following coordinates: midline, −0.3 AP, 3 mm ventral (0 point bregma). The cannula was secured to the skull with cyanoacrylate, and attached with Tygon tubing to an osmotic pump (Alza) placed in the dorsal subcutaneous space of the animal. The rate of delivery was 0.25 μl/hour (8 ng/hr of leptin (Sigma)) or PBS for 28 days. The dosage has been previously shown to have no effect when administered systemically (Halaas et al., 1997, Proc Nati Acad Sci USA 94:8878-8883). To be as close as possible to the biological situation of the ob/ob mice, the animals in which pumps were inserted were ovariectomized to avoid any artificial increase in bone mass due to the correction of their hypogonadism. The pumps were left in place for 28 days and double-labeling with calcein was performed to measure the bone formation parameters.

parabiosed ob/ob mice = assay: Cross circulation (parabiosis) between ob/ob mice with leptin ICV in one mouse of each pair; format: in vivo
Excerpt: Cross Circulation (Parabiosis) Procedure. Following anesthesia by standard procedures, the surgery is made under adequate anesthesia and aseptic techniques. A longitudinal incision is made along one side on each mouse and skin is loosened from connective tissue. The ventral edges of the incision are joined by suture. Abdominal cavity of each mouse is opened and connected to make coelio anastomosis. Finally, the dorsal edges of the skin incision are joined. Parabiosed mice are housed in separate cages subsequently. Mice used for this procedure are syngenic to avoid immune reactions. Bone histology and histomorphometry are performed at the end of the treatment period to determine bone mass.
To determine whether the signal(s) emanating from the brain and controlling bone formation was/were of humoral nature, cross circulation (parabiosis) experiments were performed between ob/ob mice. Four weeks after establishing and verifying the cross circulation, a pump delivering leptin ICV (8 ng/h) was installed in one mouse of each parabiosed pair. […] Body weight and bone histology of the ipsilateral and contralateral mouse of each pair was analyzed four weeks later, reasoning that if leptin was using humoral means to control body weight and bone mass, both mice in each pair should respond equally well to the leptin infusion.
Wildtype (C57BL/6J) and mutant (C57BL/6J A^y/a, C57BL/6J ob/ob) mice were obtained from the Jackson laboratory and adrenal medullectomized mice from Harlan Tecklad laboratory. Dbh−/− mice were rescued as previously described (Thomas et al., 1998, Neurochem 70:2468-2476). Isoproterenol (Sigma) was injected intraperitoneally (ip) once daily for 6 weeks at 30 mg/kg (wt) or 3 mg/kg (ob/ob). Propranolol (Sigma) was added to the drinking water at a concentration of 0.5 g/l. For ICV infusion, a 28-gauge cannula (Brain infusion kit II, Alza) was implanted into the third ventricle as previously described infusing human leptin (Sigma) at 8 ng/hr or MT-II at 125 ng/hr (Phoenix Pharmaceuticals) for 28 days (see, e.g., Ducy et al., 2000, Cell 100: 197-207). The cannula was connected to an osmotic pump (Alza) placed in the dorsal subcutaneous space of the animal. For parabiosis longitudinal incisions were made in the skin and in the peritoneal cavity along one side on each mouse. Edges of the incisions were connected by suture to induce coelioanastomosis. Cross-circulation was quantified by injecting 1 ml/kg 0.25% Evans blue into the tail vein of one mouse of the parabiosed pair. After 30 min. blood was collected from both mice by retroorbital bleeding and the blood exchange rate was calculated according to standard techniques (see, e.g., Harris & Martin, 1984, Am J Physiol 247:R380-386). […] Two weeks after parabiosis a pump delivering leptin ICV in one animal of each pair was implanted. For GTG lesioning, 4-week-old C57BL/6J mice were given a single ip injection of either PBS or GTG (0.5 mg/g). For MSG lesioning, 2 day-old C57BL/6J pups were injected daily subcutaneously with either PBS or MSG (2 mg/g) for 10 days.
The next question was whether the signal(s) emanating from the hypothalamic antiosteogenic network was/were of humoral or of neuronal nature. To that end, cross-circulation (parabiosis) experiments between ob/ob animals (that have no circulating leptin) were relied upon. […] Four weeks later the animals were sacrificed and analyzed.

Dbh-deficient mice = assay: Leptin ICV infusion in Dbh-deficient mice; format: in vivo, mouse
Description: Wildtype (C57BL/6J) and mutant (C57BL/6J A^y/a, C57BL/6J ob/ob) mice were obtained from the Jackson laboratory and adrenal medullectomized mice from Harlan Tecklad laboratory. Dbh−/− mice were rescued as previously described (Thomas et al., 1998, Neurochem 70:2468-2476). Isoproterenol (Sigma) was injected intraperitoneally (ip) once daily for 6 weeks at 30 mg/kg (wt) or 3 mg/kg (ob/ob). Propranolol (Sigma) was added to the drinking water at a concentration of 0.5 g/l. For ICV infusion, a 28-gauge cannula (Brain infusion kit II, Alza) was implanted into the third ventricle as previously described infusing human leptin (Sigma) at 8 ng/hr or MT-II at 125 ng/hr (Phoenix Pharmaceuticals) for 28 days (see, e.g., Ducy et al., 2000, Cell 100: 197-207). The cannula was connected to an osmotic pump (Alza) placed in the dorsal subcutaneous space of the animal. For parabiosis longitudinal incisions were made in the skin and in the peritoneal cavity along one side on each mouse. Edges of the incisions were connected by suture to induce coelioanastomosis. Cross-circulation was quantified by injecting 1 ml/kg 0.25% Evans blue into the tail vein of one mouse of the parabiosed pair. After 30 min. blood was collected from both mice by retroorbital bleeding and the blood exchange rate was calculated according to standard techniques (see, e.g., Harris & Martin, 1984, Am J Physiol 247:R380-386). […]

[1] = primary osteoblasts, 72 hours, 0.1% FBS, Northern blot
[2] = ob/ob mice, ICV 8 ng/hr, 28 days
[3] = contralateral parabiosed partner
[4] = ipsilateral mouse, 8 ng/h, four weeks

| Molecule | apoptosis: Caspase 3 expression and Annexin-V staining levels (primary osteoblasts; isoproterenol-treated versus control osteoblasts) | expression of Cbfa1 (primary osteoblasts; [1]) | expression of a1(I) collagen (primary osteoblasts; [1]) | leptin in the serum (radioimmunoassay) (ob/ob mice; ob/ob mice after ICV infusion) | Bone Volume (ob/ob mice; [2]) | bone formation rates (ob/ob mice; [2]) | trabeculae thickness (ob/ob mice; [2]) | bone appearance (classical histology) (ob/ob mice; ovariectomized ob/ob mice, third ventricle, 8 ng/hr, 28 days, vs PBS) | body weight loss in the contralateral mouse (parabiosed ob/ob mice; [3]) | bone mass / bone volume of the contralateral mouse (parabiosed ob/ob mice; [3]) | body weight of the ob/ob mouse receiving leptin ICV (parabiosed ob/ob mice; [4]) | bone mass / bone volume of the ob/ob mouse receiving leptin ICV (parabiosed ob/ob mice; [4]) | leptin in plasma / serum (leakage into the general circulation) (parabiosed ob/ob mice; parabiosed ob/ob mice after ICV infusion) | bone mass (Dbh-deficient mice) | gonadal fat pad (Dbh-deficient mice) |
| --- | --- | --- | --- | --- | --- | --- | --- | --- | --- | --- | --- | --- | --- | --- | --- |
| CC(C)NCC(O)c1ccc(O)c(O)c1 (stereo not drawn) [isoproterenol] | did not observe any change | decreased | decreased |  |  |  |  |  |  |  |  |  |  |  |  |
| B1 |  |  |  | No leptin in the serum of these animals was detected | significantly decreased | significantly decreased | significantly decreased | regained a normal appearance | never observed | never observed; also recorded: no modification | dropped considerably | dropped considerably; also recorded: dropped significantly | absence of measurable leptin | failed to decrease | near disappearance |
